The source of these data is patent US8344120B2, “Nucleic acid molecules encoding rage fusion proteins” (TransTech Pharma, Inc., priority 2006, dated 2013).

Data set [1] in a line: Solubility of TTP-4000 in formulation buffers. Format: physicochemical. The conditions noted are these: citrate versus histidine buffers. As for the experimental part:
Formulations containing sodium acetate, sodium citrate, sodium phosphate, sodium succinate, histidine, and sodium chloride were tested along with sucrose and mannitol. Various pH's between 5.5 and 7.0 were also evaluated.
Based on the solubility of the RAGE fusion protein in formulations containing one or more of sodium citrate, histidine, sucrose, mannitol, and Tween 80 at a pH of 7.0 or less, formulations containing one or more of these buffers, lyoprotectants, or surfactant were selected for further study.

For data set [2], the system named is allogeneic rejection of transplanted islet cells. Kind of data set: Allogeneic islet transplantation in diabetic B6 mice. It is filed as in vivo. The note with it: for day of graft loss for each animal: BALB/c islets in B6 mice; for day of graft loss, Mean: n 8. As for the experimental part:
C57BL/6J (6-8 week old) (B6) mice were made diabetic by a single intravenous injection of streptozotocin (STZ) (Sigma Chemical Co., St. Louis, Mo.) at 200 mg/kg.
BALB/cJ (6-8 week old) (BALB) mice served as donors for islet transplantation, thus providing an allo-mismatch for islet transplants.
Mice (BALB/c) were anesthetized with ketamine HCl/xylazine HCl solution (Sigma, St. Louis Mo.). After intraductal injection of 3 ml of cold Hank's balanced salt solution (HBSS, Gibco, Grand Island N.Y.) containing 1.5 mg/ml of collagenase P (Roche Diagnostics, Branchburg, N.J.), pancreata were surgically procured and digested at 37° C. for 20 mins. Islets were washed with HBSS and purified by discontinuous gradient centrifugation using Polysucrose 400 (Cellgro, Herndon Va.) having four different densities (26%, 23%, 20%, and 11%). The tissue fragments at the interface of the 20% and 23% layers were collected, washed and resuspended in HBSS. Individual islets, free of attached acinar, vascular and ductal tissues were handpicked under an inverted microscope, yielding highly purified islets for transplantation.
Streptozotocin-induced diabetic C57BL/6 (B6) mice received islet grafts within 2 days of the diagnosis of diabetes. BALB/cJ (6-8 week old) (BALB) mice served as donors for allogeneic islet transplantation. For transplantation, 500-600 freshly isolated islets (i.e., approximately 550 islet equivalents) from donor mice were picked up with an infusion set and transplanted into the subcapular space of the right kidney of a recipient.
Test compounds were administered as soon as the islets were transplanted; administration continued for about 60 days, depending upon how the control animal was faring.
Islet graft function was monitored by serial blood glucose measurements daily for the first 2 weeks after islet transplantation, followed by every other day thereafter. Reversal of diabetes was defined as blood a glucose level of less than 200 mg/dl on two consecutive measurements. Graft loss was determined when blood glucose exceeded 250 mg/dl on two consecutive measurements.

In data set [3] the test system is diabetic rat model of restenosis. Kind of data set: Diabetic rat model of restenosis. The note with it: for Intimal area / Medial area: IP, 21 days. It is filed as in vivo, rats. The method, then: Use of the RAGE fusion proteins in the treatment of diabetes related pathology is illustrated in FIG. 14.
In these experiments, balloon injury of left common carotid artery was performed in Zucker diabetic and nondiabetic rats using standard procedure. […] A maintenance dose was delivered every other day until day 7 after injury (i.e., at day 1, 3, 5 and 7 after injury). The maintenance dose was high=1 mg/animal for one group, or low=0.3 mg/animal for the second group. To measure vascular smooth muscle cell (VSMC) proliferation, animals were sacrificed at 4 days and 21 days after injury.
For the measurement of cell proliferation, 4 day animals received intraperitoneal injection of bromodeoxyuridine (BrDdU) 50 mg/kg at 18, 12, and 2 hours before euthanasia. After sacrifice, the entire left and right carotid arteries were harvested. Specimens were stored in Histochoice for at least 24 hours before embedding. Assessment of VSMC proliferation was performed using mouse anti-BrdU monoclonal antibody. A fluorescence labeled goat anti-mouse secondary antibody was applied. The number of BrdU-positive nuclei per section were counted by two observers blinded to the treatment regimens.
The remaining rats were sacrificed at 21 days for morphometric analysis. Morphometric analyses were performed by an observer blinded to the study groups, using computerized digital microscopic planimetry software Image-Pro Plus on serial sections, ([…]) carotid arteries stained by Van Gieson staining. All data were expressed as mean±SD. Statistical analysis was performed with use of SPSS software. Continuous variables were compared using unpaired t tests. A values of P≦0.05 was considered to be statistically significant.
In FIG. 14B, the y-axis represents the number of BrdU proliferating cells.

Another data set has as its system animal model of stroke. Kind of data set: Animal model of stroke (ischemia/reperfusion). It is filed as in vivo, mice. The conditions noted are these: treated just prior to reperfusion. The method, then:
For example, the RAGE fusion proteins of the present invention may also be used to treat stroke. […] In this model, the […] of a mouse is ligated and then reperfused to form an infarct. To assess the efficacy of RAGE fusion proteins to treat or prevent stroke, mice were treated with sRAGE or TTP-4000 or control immunoglobulin just prior to reperfusion. […] TTP-4000 was also compared to sRAGE in a disease relevant animal model of stroke. In this model, the […] of a mouse was ligated for 1 hour followed by 23 hours of reperfusion at which point the mice were sacrificed and the area of the infarct in the brain was assessed. […] After the nylon suture had been in place for 1 hour, the animal was re-anesthetized, rectal temperature was recorded and the suture was removed and the incision closed. Infarct volume was determined by anesthetizing the animals with an intraperitoneal injection of sodium pentobarbital (50 mg/kg) and then removing the brains. […] The infarct area in each section was determined with a computer-assisted image analysis system, consisting of a Power Macintosh computer equipped with a Quick Capture frame grabber card, Hitachi CCD camera mounted on a camera stand. […] The images were captured and the total area of infarct was determined over the sections. […] Summing the infarct volumes of the sections calculated the total infarct volume. […]

[4] abbreviates: High dose 1.0 mg/animal qod × 4, loading dose 3 mg/animal.
[5] abbreviates: Low dose 0.3 mg/animal qod × 4, loading dose 3 mg/animal.

Values joined by “and” are separate entries in the source; they are usually repeats but may differ in a detail not shown here. Identical values can stand only once.

B1: TTP-4000: four domain RAGE fusion protein: human RAGE N-terminal sequence (to position 251) linked to human IgG Fc (γ1) without hinge; SEQ ID NO: 34/56 (protein)
chain: QNITARIGEPLVLKCKGAPKKPPQRLEWKLNTGRTEAWKVLSPQGGGPWDSVARVLPNGSLFLPAVGIQDEGIFRCQAMNRNGKETKSNYRVRVYQIPGKPEIVDSASELTAGVPNKVGTCVSEGSYPAGTLSWHLDGKPLVPNEKGVSVKEQTRRHPETGLFTLQSELMVTPARGGDPRPTFSCSFSPGLPRHRALRTAPIQPRVWEPVPLEEVQLVVEPEGGAVAPPSVFLFPPKPKDTLMISRTPEVTCVVVDVSHEDPEVKFNWYVDGVEVHNAKTKPREEQYNSTYRVVSVLTVLHQDWLNGKEYKCKVSNKALPAPIEKTISKAKGQPREPQVYTLPPSRDELTKNQVSLTCLVKGFYPSDIAVEWESNGQPENNYKTTPPVLDSDGSFFLYSKLTVDKSRWQQGNVFSCSVMHEALHNHYTQKSLSLSPGK
As for B1, in data set [1], the “solubility in formulations, in words” value is on record as “may be more soluble in formulations containing histidine”. For the same molecule, the “day of graft loss for each animal” value in data set [2] (300 ug + 30 ug qod ip) is 12 day (2×) and 11 day (2×) and 8 day (2×) and 13 day and 14 day; in data set [2] (300 ug LD + 100 ug qod ip) it was 13 day (2×) and 12 day and 16 day (2×) and 15 day and 14 day (2×). Also, the “day of graft loss, Mean” value in data set [2] (300 ug + 30 ug qod ip) was 11.125 days; in data set [2] (300 ug LD + 100 ug qod ip) it was 14.125 days. For the same molecule, the “time before detection of graft failure, in words” value in data set [2] (Groups 1 and 3 versus untreated, PBS or human IgG1) is “increase in the time before detection of graft failure”. Also, the “vascular smooth muscle cell proliferation (BrdU-positive nuclei)” value in data set [3] (4 days after injury, dose-responsive) is “significantly reduced”. The Intimal area in data set [3] (setting [4]) amounted to 0.16 ± 0.02 mm^2; in data set [3] (setting [5]) it was 0.18 ± 0.04 mm^2. The Medial area in data set [3] (setting [4]) is on record as 0.11 ± 0.01 mm^2; in data set [3] (setting [5]), 0.11 ± 0.02 mm^2. In addition, the “reduction in infarct volume compared to sRAGE” value in the data set with animal model of stroke was “significantly greater reduction in infarct volume”.
